Patent US7271245B2, “Methods and compositions for inhibition of metastasis” (The Scripps Research Institute, priority 2004, dated 2007)

Test system: BMS human breast cancer cells
Experiment: Experimental metastasis in vivo (lung colonization)
Parameters: species or system mouse
Protocol: FIGS. 5A, 5B, 5C. ScFvs Bc-12 and Bc-15 prevent hematogenous breast cancer metastasis. (A) Left: Lungs of female SCID mice 32 days after i.v. injection with 1×10^5 BMS human breast cancer cells. The mice were treated with 50 μg Bc-12 or Bc-15 in 100 μl PBS (i.v.) on days 1, 2, 3 and 4. Controls received PBS only. Right: Numbers of lung surface metastases for each animal, horizontal lines indicate the median number of metastases per group. […] (B) Left: Histological sections of the above mouse lungs, stained with hematoxylin/eosin. Metastases were counted in six sets of three consecutive sections separated by 140 μm for each lung. Right: Number of metastases counted in sections of individual lungs, horizontal lines indicate median number of metastases per animal group. […] (C) Effect of Bc-15 treatment on established breast cancer metastasis in the lungs. Female SCID mice were injected i.v. with 5×10^5 DsRed2-tagged MDA-MB 435 breast cancer cells expressing constitutively activated integrin αvβ3D723R. Mice were treated on day 7, 9, 11 and 14, 16, 18 by i.v. injections of scFv Bc-15 or its RGE mutant, Mut-15 (40 μg/dose). Metastatic foci were enumerated by fluorescence microscopy on day 19. Left: Images of typical tumor foci within the lung tissue in Mut-15 (top) or Bc-15 treated mice (bottom) (bar: 50 μm). Right: Number of metastatic foci within the lung tissue of each animal, horizontal line: median number of metastases per group.
Experimental metastasis in vivo. 1×10^5 BMS human metastatic breast cancer cells were injected into the lateral tail veins of 9 week old female C.B17/lcrTac-Prkdc scid mice (Taconic Farms) (n=8 to 10) together with a 50 μg bolus dose of scFv. I.v. Injections of 50 μg scFv bolus doses were repeated on days 2, 3 and 4 of the experiment. Control animals received vehicle only (PBS). For in vivo use, endotoxin was removed from scFv preparations on Detoxy-Gel resin (Pierce). Remaining traces ranged from 0.001 to 0.07 EU endotoxin/mg scFv (LAL test, Bio Whittaker). On day 32, mice were euthanized, dissected, the lungs excised, fixed in Bouin's solution, and metastatic foci counted at the lung surface under a dissecting microscope. The same lungs were embedded in paraffin, and 10 μm sections were cut and stained with hematoxylin/eosin. Per lung, 7 sets of three consecutive sections were collected, separated by 140 μm. The sections were randomized and coded, and the total number of metastatic foci counted.
To test directly whether targeting activated integrin αvβ3 with the ligand mimetic antibodies Bc-12 and-15 affects target organ colonization by circulating metastatic breast cancer cells, 1×10^5 BMS human breast cancer cells were injected intravenously into female C.B-17 SCID mice, together with 50 μg sterile, endotoxin free preparations of Bc-12 or Bc-15 (n=8-10 mice per group). At an average blood volume of 2 ml per mouse, this provides an initial scFv concentration of 1 μM. The clearance time for scFv antibody fragments in the circulation is less than 1 h. Kortt et al., Biomol. Eng, 18: 95-108, 2001. Tumor cells may remain in the circulation for several days. Therefore, scFv antibody injections (50 μg bolus doses, i.v.) were repeated on the second, third and fourth day. […] After 32 days, the mice were euthanized, dissected and analyzed by gross examination. […] The lungs were excised, fixed, and metastatic foci counted at the lung surface. Each of the control treated mice had tumor foci on their lungs (range: 8 to 68 foci per lung). In stark contrast, only two animals in the Bc-12 treated group, and 1 animal in the Bc-15 treated group had one visible nodule at their lung surface (FIG. 5A).
Per lung, six sets of three consecutive sections, separated by 140 μm, were collected. The sections were randomized and coded, and the total number of metastatic foci counted. All control animals had metastases in their lung tissues (range: 7 to 48 counts per lung), and those were of considerable size (FIG. 5B top image). […]

B1: Bc-12: patient derived human scFv antibody against activated αvβ3 with RGD motif in CDR-H3; cDNA ATCC PTA-6303 (protein)
scFv: MAQVQLVQSGAEVKKPGASVKVSCKASGYTFSNYGITWVRQAPGQGLEWMGWINNGNTHYAQKFQGRVTMTTDTSTSTAYMELRSLRSDDTAVYYCARDPRGDDEPYWGQGTLVTVSSGGGGSGGGGSGGGGSEIVLTQSPLSLPVTLGQPASISCRSSQNLVYSDGNTYLSWFQQRPGQSPRRLIYKVSNRDSGVPDRFSGSGSGTDFTLKISRVEAEDIGVYYCMQGTHWPPRTFGQGTKVEIKRGLGGLVDYKDDDDK
50 μg i.v. days 1-4, 32 days
  health status during the experiment: appeared healthy
50 μg i.v. days 1-4, day 32, P<0.001 Kruskal Wallis
  number of lung surface metastases versus PBS control: significantly fewer metastases
P<0.005 Kruskal Wallis
  number of metastases in lung sections versus PBS control: significantly fewer detectable metastases
SCID mice, 50 μg i.v. days 1-4, day 32, n=8-10 per group, controls 8 to 68 foci per lung
  animals with one visible nodule at lung surface: two
Day 32
  gross examination at dissection: No obvious abnormalities
Histological sections, day 32, all controls positive
  mice with microscopically detectable metastases in lung tissue: 3 of 10
